Columns and labels:
Wi38 cells = experiment: DNA content by propidium iodide staining and FACS, Wi38 cells; format: cell-based, human
MEFs [1] = experiment: DNA content by propidium iodide staining and FACS, mouse embryo fibroblasts; format: cell-based; details: MEFs with pRB, after one hour of treatment, duplicate
MEFs [2] = experiment: as above; format: cell-based; details: sub-confluent MEFs; for percentage of cells with S-phase DNA content / percentage of cells with sub-G1 DNA content: one hour, SEQ ID NO:3 1.87-30 μM, controls 30 μM
Procedure: (A) PAP's CRM stimulates both the percentage of cells with sub-G1 DNA content and S-phase DNA content in a dose dependent manner. DNA content as measured by FACS analysis is graphically represented.
(B) PAP's CRM stimulates cell death over time. The percentage of cells with a sub-G1 DNA content with or without treatment with 30 μM of PAP's CRM (SEQ ID NO: 3) for varying lengths of time is shown.
(C) The percents of cells with G0/G1 (in black), S (in gray), and G2/M (in white) DNA contents of the same population of cells in (B) are depicted.
Panel A depicts the MEF's response to a concentration curve of SEQ ID NO:3. […] After a one hour incubation, cells were harvested for propidium iodine staining and subsequent FACS analysis.
To further study the MEF's reactions to the membrane permeable peptide, SEQ ID NO:3, and to determine if the increase in S-phase depicts a stimulation or inhibition of proliferation, treatment with one concentration was followed at varying time points. Sub-confluent MEFs were treated with 30 μM SEQ ID NO:3, harvested at different time points, and their DNA content was analyzed by propidium iodide staining and subsequent FACS analysis. FIG. 10 panel B depicts the percentage of death initiated over time, as measured by sub-G1 DNA content. 30% of the cells die after the first hour of treatment, 50% by the forth. […], depicts the cell cycle analysis over time of those cells that are not dying. Here, the stimulation of the cell cycle over time by SEQ ID NO:3, is clearly seen, ruling out an inhibitory effect. In the first hour, 25% of the cycling cells are induced into S-phase, and in time, into G2/M and back into G1.
(§1) After treatment with or without cell membrane permeable peptides (Synpep), cells were trypsinized, centrifuged and washed in PBS. Cell were than fixed with methanol and kept at −20° C. for 40 min or overnight. After washing and equilibration in PBS, the cell pellet was resuspended in 1 ml of staining solution containing 50 μg of RNase A and 0.5 μg of propidium iodide per ml in PBS, and kept at room temperature for over 30 minutes. The cells were then applied to the fluorescence-activated cell sorter (FACSCalibur; Becton Dickson). The FACSCalibur program was used to sort and count the cells, and the Modfit program was used to calculate the percentage of cells in the G0/G1, S, and G2/M phases.

HaTCat cells = experiment: DNA content by propidium iodide staining and FACS, HaTCat cells; format: cell-based, human; details: for S-phase population of cells: confluent (resting) HaTCat cells
Source text: A graphical representation of DNA content of cells as collected by propidium iodide staining and subsequent FACS analysis. G0/G1, S, and G2M phases are depicted of cells either treated or not treated with cell permeable peptides. The percentage of untreated cell in a given phase are in white, PAP's CRM in (SEQ ID NO: 3) black, p21's in gray (SEQ ID NO: 5), scrambled in horizontal stripes (SEQ ID NO: 4), internalization sequence alone in vertical stripes (SEQ ID NO: 2).
(A) PAP's CRM (SEQ ID NO: 3) kills growing HaTCats, but stimulates S-phase entry of stationary HaTCats. The bar graph depicts the fold induction over non-treated cells of sub-G1 DNA content and S-phase DNA content of four different populations of cells. The percentage of cells found S-phase of each population is noted below the bar graph. Sub-G1 DNA content and S-phase DNA content are depicted of cells either treated or not treated with cell permeable peptides. The percentages of untreated cell in a given phase are in white, PAP's CRM (SEQ ID NO: 3) in black, p21's in gray (SEQ ID NO: 5), and scrambled in stripes (SEQ ID NO: 4).
Panel B of FIG. 7 is a graphical representation of DNA content of cells, derived from propidium iodide staining and subsequent the fluorescence-activated cell sorter (FACS) analysis. In this experiment, an immortalized human karitinocyte cell line (HaTCat) was treated with the cell-membrane permeable form of PAP's CRM (SEQ ID NO:3). […] This is not observed with the scrambled sequence (SEQ ID NO:4), nor the p21 (SEQ ID NO:5) nor the penetratin sequence alone (SEQ ID NO:2).
FIG. 8 is a graphical representation of the fold induction, over untreated control cells, of sub-G1 DNA content and S-phase DNA content of four different populations of HaTCat cells. These populations vary in their proliferation rates due to their confluency, starting with the least confluent population of cells, with 30% in S-phase, to the most confluent population, with only 3.5% in S-phase. Cycling cells, with over 30% of cells in S-phase, die when treated with the SEQ ID NO:3.
as §1

pRB knock out MEFs = experiment: DNA content by FACS, pRB knock out mouse embryo fibroblasts; format: cell-based
Source text: (A) A graphical representation of the fold induction of sub-G1 DNA content in cells with or without pRB, as indicated below the graph. […] (B) A graphical representation of the fold induction of S-phase DNA content in the same cells.
The ability of SEQ ID NO:3 to stimulate both death and proliferation in mouse embryo fibroblasts, allows us to test the model, wherein pRB inhibits cell death after treatment with SEQ ID NO:3, thereby allowing for stimulation of proliferation (FIG. 9). In the absence of pRB, cells would no longer have the anti-apoptotic activity of pRB, and treatment with SEQ ID NO:3 would lead only to cell death. In the experiment shown in FIG. 11, two genetically identical populations of cells were used, except that one was pRB minus, by way of knock out technology. The fold inductions of both sub-G1 and S-phase are represented in FIG. 11. Upon treatment with SEQ ID NO:3, here done in duplicate, the cells with pRB show at least a two-fold induction of S-phase after one hour of treatment. The cells without pRB show none, but therefore a dramatic (up to 50 fold) induction of death.
After treatment with or without cell membrane permeable peptides (Synpep), cells were trypsinized, centrifuged and washed in PBS. […] The cells were then applied to the fluorescence-activated cell sorter (FACSCalibur; Becton Dickson). […]

[3] = molecular target: PAP-cyclin B1 interaction (Homo sapiens, UniProt P14635); experiment: GST-cyclin B1 pull-down assay of PAP binding
Sequence of PAP-cyclin B1 interaction (P14635 whole entry): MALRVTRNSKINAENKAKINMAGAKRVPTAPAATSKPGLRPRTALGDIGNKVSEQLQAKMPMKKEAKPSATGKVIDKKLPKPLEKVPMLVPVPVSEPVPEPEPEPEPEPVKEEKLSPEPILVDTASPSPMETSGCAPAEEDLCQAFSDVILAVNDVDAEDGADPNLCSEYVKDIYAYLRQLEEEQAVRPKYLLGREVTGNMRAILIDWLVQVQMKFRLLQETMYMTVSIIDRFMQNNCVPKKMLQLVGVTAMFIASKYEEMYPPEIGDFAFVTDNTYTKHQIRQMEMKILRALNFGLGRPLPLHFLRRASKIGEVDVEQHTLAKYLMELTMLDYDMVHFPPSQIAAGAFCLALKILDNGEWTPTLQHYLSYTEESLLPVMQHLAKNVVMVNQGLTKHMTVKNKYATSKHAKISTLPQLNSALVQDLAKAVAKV

cyclin A/cdk2 = cyclin A/cdk2 (Homo sapiens, UniProt P20248); experiment: in vitro kinase assay, pRB phosphorylation by cyclin A/cdk2; format: biochemical; details: peptide 9 μM and 18 μM; for pRB phosphorylation by cyclin A/cdk2: γ-32P ATP, SDS-PAGE, autoradiography
cyclin B1/cdc2 = cyclin B1/cdc2 (Homo sapiens, UniProt P14635); experiment: in vitro kinase assay, pRB phosphorylation by cyclin B1/cdc2; format: biochemical; details: peptide 18 μM
Sequence of cyclin B1/cdc2 (P14635 whole entry): as above
Sequence of cyclin B1/cdc2 (P06493 whole entry partner): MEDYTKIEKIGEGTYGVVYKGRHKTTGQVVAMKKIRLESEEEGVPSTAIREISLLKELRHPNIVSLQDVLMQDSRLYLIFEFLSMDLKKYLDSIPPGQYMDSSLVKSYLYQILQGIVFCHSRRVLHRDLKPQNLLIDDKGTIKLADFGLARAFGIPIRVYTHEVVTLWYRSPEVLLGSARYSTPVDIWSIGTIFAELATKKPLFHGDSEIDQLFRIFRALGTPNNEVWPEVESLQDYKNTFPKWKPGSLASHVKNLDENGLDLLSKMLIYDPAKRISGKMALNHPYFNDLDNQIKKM

[4] = molecular target: cyclin D1-cdk2 association (Homo sapiens, UniProt P24385); experiment: GST-cyclin D1 binding assay with cdk2; details: peptide 9 μM and 20 μM; Western blot

Substance: SEQ ID NO:3: 8-mer peptide (SEQ ID NO:1) fused to penetratin (SEQ ID NO:2); cell-membrane permeable form of PAP's CRM (RQIKIWFQNRRMKWKKSKIRILVG; poly(A) polymerase cyclin recognition motif fued to Drosohilia Antennapedia homeodomain residues)
- Wi38 death (sub-G1 DNA content) (Wi38 cells; populations of varying confluency): able to induce Wi38 death in a growth dependent manner
- decrease in fold induction of sub G1 DNA content (Wi38 cells; with the increase in confluency and decrease in growth): 30 fold
- fold induction of S-phase (MEFs [1]): two
- cells that die (sub-G1 DNA content) (MEFs [2]; 30 μM, after the first hour): 30%
- cells that die (sub-G1 DNA content) (MEFs [2]; 30 μM, by the fourth hour): 50%
- cycling cells induced into S-phase (MEFs [2]; 30 μM, in the first hour): 25%
- percentage of cells with S-phase DNA content (MEFs [2]): dramatically increased
- percentage of cells with sub-G1 DNA content (MEFs [2]): dramatically increased
- S-phase population of cells (HaTCat cells): dramatic increase
- cell death (sub-G1 DNA content) (HaTCat cells; cycling HaTCat cells, over 30% of cells in S-phase): die
- cell death (sub-G1 DNA content) (HaTCat cells; most confluent HaTCat population, 3.5% in S-phase): cell death is in fact inhibited
- fold induction of death (sub-G1 DNA content) (pRB knock out MEFs): up to 50 fold
- fold induction of S-phase (pRB knock out MEFs; MEFs without pRB, after one hour of treatment): none

Substance: SKIRILVG (poly(A) polymerase cyclin recognition motif) [SEQ ID NO:1, synthetic 8-mer peptide spanning PAP's cyclin recognition motif (CRM)]
- PAP I-GST-cyclin B1 binding ([3]; 2, 5, 10 and 20 μM peptide): dose-dependent enhancement
- association of purified bacterial his-PAP I with GST-cyclin B1 ([3]; 2, 10 and 20 μM peptide, Western blot with anti-PAP antibody): strongly stimulated
- input PAP bound to GST-cyclin B1 ([3]; highest peptide concentration, purified bacterial his-PAP I): ~100%
- cyclin A phosphorylation in the same reaction mixture (cyclin A/cdk2; internal control for specificity): not cyclin A phosphorylation
- pRB phosphorylation by cyclin A/cdk2 (cyclin A/cdk2): effectively inhibited
- cyclin B1 autophosphorylation (cyclin B1/cdc2): not affected
- phosphorylation of pRB by cyclin B1/cdc2 (cyclin B1/cdc2): strongly and specifically inhibited
- presence of cdk2 in the eluate of GST-cyclin D1 [4]: significantly increased

Substance: LRSGIKVI (scrambled sequence) [SEQ ID NO:4, fused to penetratin in cell tests, reference compound]
- pRB phosphorylation by cyclin A/cdk2 (cyclin A/cdk2): no effect
- percentage of cells with S-phase DNA content (MEFs [2]): No effects
- percentage of cells with sub-G1 DNA content (MEFs [2]): No effects
- presence of cdk2 in the eluate of GST-cyclin D1 [4]: without significant effect
- S-phase population of cells (HaTCat cells): not observed

— patent US6696546B1, “Peptide that kills growing but not stationary cells” (The Trustees of Columbia University in the City of New York, priority 2000, dated 2004)
